Assay results reported in a protein production outcome set (Wang et al. 2014).

Assay: label from the status in PepcDB records
For “MDTKTKRGFWIGINYSKTNLSLITASAILSIAFYLIYYNTKKTVAAVLFLALAIGAAFFFIKPIVDRDNKKNDINSNIPFFITAFSSLVTSDANIIDVLILLSKKEKLGYLRVEIEKILNLVKNWGMGLAEAINFVAKKTPSDLFSDFLTRFSHAIDSGQDLEEFTRSEVFSTMNSFETAYVSALYSFDLYRDIYVSLLLSFAFLITFIMIMPILIPINVFSVLMLSLIMVALGEFMLVYGISIVLPKDPLWHRTGIKTDTDIKMRNLFLISGTFSMMIFIVIDVMKIMFRIPFYFSFALIVTPLAYPSYVGTKMEREVQKKDEMYGSFIRSLSGSASARGNLLIDALKAIVMHDFGILSKDVNKLYRRLLYRINSLKAWKMFSADTGSHLIEIYSETYAESIDLGADALKSGMVISENFEKIVGLRKRKHSSVTSFVGIMYGITAGLAFSLAISYGILKIIDGIFSSFNLSSLGMTGIFLSPPSSSIFLIEIFLLIILFVHSFIGGISLKVSDGGRIINGLHHTVLMIWIVSFVVYGTMYITTILLGSTVS”, the protein production was “failed”. With “MDTLAYLHLAETYETSTTDESSPEIPWTKNQSSALMLVASFAMGSLNWCLPTVAALKKGHRNPQVASLQQKLRASGYFPQVATGYFGSVTEAAVKRFQQANGLKADGIVGAATLAALESSIGVSESSITDPQIATSKSSLKQGDISDRVMSLQEKLQADGYYQGAITGNFDAATQAAVIQFQQANRLVVDGIVGPQTSSVLASSTRKLAASLPQKTTLEPFLTQQPQNQVKISPQSAAPPSPSQKMRLIKTISGKISPKSVVYSGNGLFFAQNMMYNHTITVYDRNYELVKVIPDEVDLSKYGHSRFKGKYRGAPVEASFSHNGKYAWISNYQMYGPGFNNPGSDKCHPSQKTDKSFLYRINTETLKIDRVIPVGSVPKFVATSTDENLILVSNWCSWDLSVVDINQNQEIKRIKLGPYPRGIVVDPASETAYVAVMGSYNIAKVNLRDFSVQWLRNIGSSPRHLNIDPAGKYLYASLNGEGKIAKISLPQGNLVKKIATGNAPRSMVLSANGQTLYVVNYGEDTVSKVRTSDMKVLQKVKVEPDPIGITYDPQTREVWVACYSGNIMIFQD” the protein production was “failed”. For “MDTLDGLKTVVAVVETNSFTAASDRLGISKALVSKYVGEVENQLGIRLFNRTTRQLALTDSGRRYYEEAIILLEQFSAMVDNVTGEQTAPRGLLRISAPVTFGEMRLAPLLPKFIALYPDLTVELVLTNGAIDMLEEGIDVRLRIGGVDDSNMIARHLTNFPLVLSASPNYAQTQGLPTTPEQLGEHHCIIDSNFRIGKQWPFISPKGRAETINVQSGLAVNSPQAVREIAIADGGIAMTPNFIVEDALADGRLLRVMPEYTTLEFGLFAIYPHRKYVARKVRCFIDFVLEQFSKK”, the protein production was “failed”. In the case of “MDTMDTLRAFLRVAELGSFTRAAETLGLPKASVSTAVQRLEASLGTQLLHRTTRRVQLTADGTAFYQRSRDLLDDMDELQGMFQRDHSQLRGRLRVDMSAGIARQFVIPALPAFLAQHPQLEIEISGTDRRVDLVREGFDCVLRVGTVEDTSLVGRPLGVLRIINVASAQYLAQRGVPQTLEDLAQHDLVHYVSTLGQRSPGFEYHDGAQYHWLPMRGPVTVNNGDAYLAAARAGLGIIQAPASPLQAHLDSGVLVEVLAQMAPEPMPVTLLYAQRRHLPQRVRLFMDWIAQVMAPHLEPHLP”, the protein production is reported as “failed”. With “MDTMRDRFAPVVSRLLDEDPRVVVVLAEIGKDGFTEARRRHPDRVINVGIREQLLVGAGAGLALTGLRPVLHTFASFLVERPFEQVKLDLGHQDVGAVLVSAAASFDWPAGGYTHMSPGDVALLDTLDGWTMHVPGHPDEAETLLRHAVAAGDDKVYVRLSVQSNARRRAVDGERFLTVREGRAGVVVAVGPLLDPVLEATEGLDVTVLYATTVRPFDAVALRRATETAGTDVVLVEPYLAGTSTAAANDALHDVPHRVLGLGVGRPELRRYGSVDEHMAAHGLDAGSLRQRIAEFAGAPARA” the protein production was “failed”. For “MDTNNFTVKVEYVDADGAEIAPSDILTDYHYVSTPKDIPGYKLREIPHNATGNITDTGIIVRYIYLEHHHHHH”, the protein production was “not failed”. With “MDTSLPSAILNNMVTATLILDDGLAIRYANPAAELLFSQSAKRIVEQSLSQLIQHASLDLALLTQPLQSGQSITDSDVTFVVDGRPLMLEVTVSPITWQRQLMLLVEMRKID” the protein production was “not failed”. For “MDVDVDVDVEMDMDMDMYVALVEVEVEVFLLRTQILTESRKGRMITNMKKPNGNVTNVCDRCGGNGHWFHTCRIPKYLVELYKQSLKQDGKNTETNLVYEKGEDDTTHMELDDFLTHDGNIDS”, the protein production was “failed”. For “MDVEDYITLFLSLWIIASALAVKSVDVFLTLTLIGLLITLEVGGLFLSKEQKENLQPLIEILLLVFAVIVVKKVYEVLSG”, the protein production was “failed”. For “MDVLIFNSWHWWTHTSGLQPWDYMREGNQLYKDMNRLVAYYKGLNTWARWINNNIVPSRTQVFFQGVSPVHYDGREWNEPLKSCNGQTQPFMGQRYPGGLPLGWVVVNKVLSRIRKPVHLLDLTTLSEYRKDAHPSLYNGISKDLDCSHWCLPGLPDTWNLLLYSSLTS”, the protein production was “failed”. With “MDVLIHLFVGLHIIGIAALLGGFLTQMKAMGRGTARFVPGMLHGALTMLVTGVALVGLNQADDHSVNTIKIGVKLALLIVILGLVYVKRDEEQVDKGLFGLVGLLTTANIFIAVLWT” the protein production was “failed”. With “MDVLRKQEILPQLPKLDKYERKSSCGNTWQGSLSETESWREKLRYLTDYRLERGRFDKDTDFLSTFQPKQNEVQRNNISFEFDSDKSSRKTDFPGILTERPVLLRTNQEPDVYGARLRELSAANAEGERNVFHEDKTSSSQSKLPSFEIFSAIGQKEDIPGYQGGCLRGETVLKTAAVASPQIADRNSRVSFHDGGILQPINSPTGFSQPRNDNNSYKTSSSEENLYSIRQLPWSEYARTRNYDCVEPSLGVSISDEQRRFGENALCMSVSQPMYEEPHPLVTLRSTEGLTQEQKQLRR” the protein production was “failed”. For “MDVSGQLNTETVGSSLRKIRSFSHYEKHDEVFHSDQSHIVVVHNGQLRVQTGDCTIDVVAGSGVFLSQGDYLLEYSPQGGNYHSSIIEFDNELVSQLLQKHSDLLMTLPKVDKLNSGLFSFGLNILIEQVLSGMKTLEEQSYPDAIMRLKYEEMLILLLHSQGGEVLYALLSQQTNRTSDRLRRFMEQHYLKEWKLTDYAQEFGASLTTFKELFNEHYGISPRAWISERRLLHAHKLLLTSKMSIVDVAMEAGFSSQSYFTQSYRRRFGTTPSKVRSGDEQVAIAN”, the protein production was “failed”. With “MDVTVSTDDGYRVNNLGLMSSRQNYMIFGGFVAIAGIIIVLVGEKFKPSANSVKCPYCAELISAEAVKCKHCGSDVTPSKTIVSADDAEASDRLADVNVKLIAGVVLAVFAAIIGAIIFHRQ” the protein production was “failed”. In the case of “MDWEERENPKRLVKTFAFPNFREALDFANRVGALAERENHHPRLTVEWGRVTVEWWTHSAGGVTEKDREMARLTDALLQR”, the protein production is reported as “not failed”. In the case of “MDYFGLAAKYIPFVTLGLLPIMNPLSTVPLFLELTKRMSPERKHQQARRACLYALSILAVFLFIGNGIITLFGISLAGIRVAGGLIILVLAFRMLFSGEGEEASIETEATEIKRANLDFSFSPLAMPSLAGPGSIAVVMSYGSQIPDDALVFGHFIVICGISITVLIAYIALAGSAWIAKFLGEHGIQAVTKIMGFLLTCIAVQFIASGIRDFSQTL”, the protein production is reported as “failed”. In the case of “MDYSQYHVEQTQEITELVTRTFSKSEGVDEGTLIGALIKDLFATTDSDDMFIFVAKDNGKIVGSIFFTRLTFEIDTTAFLLCPVVIDTEYQNKGVGQTLINHGLEVLKQEGVELVFTYGEPKFYERVGFEIVSEEQFKSPIPLSYLYSWLAQSLNDEVLTYIPGRSKCVAALNNLRLW”, the protein production is reported as “failed”. With “MDYTASYYTDEELAKLFKAAKGDPLELPIVLAAYYGLRRSEIIGLRWDAIDFNPDDPKITIQFTVTEVNFGDGQGNVIIEKEGTKSKASKRTLPLVKPIADLLLQKKKDIENNRRLCGSCYNDKYLDFVHVNEIGERMKPNYISQHFALLLEKHGLKKIRFHDLRHSCASLLYANGVSLKQIQEWLGHSDISTTANIYTHLDYNSKIATANAILPVLFDQLEHHHHHH” the protein production was “failed”.
